Test results reported in patent publication US20250333441A1, “POLYPEPTIDE INHIBITORS AND USES THEREOF” (Neuracle Science Co., Ltd., priority 2021, published 2025).

B1: LRRC4B (364-576): LRRC4B deletion construct, amino acids 364-576 of SEQ ID NO: 2 (SEQ ID NO: 61) (protein)
chain: PVIVEPPTDLNVTEGMAAELKCRTGTSMTSVNWLTPNGTLMTHGSYRVRISVLHDGTLNFTNVTVQDTGQYTCMVTNSAGNTTASATLNVSAVDPVAAGGTGSGGGGPGGSGGVGGGSGGYTYFTTVTVETLETQPGEEALQPRGTEKEPPGPTTDGVWGGGRPGDAAGPASSSTTAPAPRSSRPTEKAFTVPITDVTENALKDLDDVMKTTK
B2: LRRC4B (36-576): full-length ectodomain of LRRC4B protein, amino acids 36-576 of SEQ ID NO: 2 (SEQ ID NO: 5) (protein)
chain: AGGGGVAVTSAAGGGSPPATSCPVACSCSNQASRVICTRRDLAEVPASIPVNTRYLNLQENGIQVIRTDTFKHLRHLEILQLSKNLVRKIEVGAFNGLPSLNTLELFDNRLTTVPTQAFEYLSKLRELWLRNNPIESIPSYAFNRVPSLRRLDLGELKRLEYISEAAFEGLVNLRYLNLGMCNLKDIPNLTALVRLEELELSGNRLDLIRPGSFQGLTSLRKLWLMHAQVATIERNAFDDLKSLEELNLSHNNLMSLPHDLFTPLHRLERVHLNHNPWHCNCDVLWLSWWLKETVPSNTTCCARCHAPAGLKGRYIGELDQSHFTCYAPVIVEPPTDLNVTEGMAAELKCRTGTSMTSVNWLTPNGTLMTHGSYRVRISVLHDGTLNFTNVTVQDTGQYTCMVTNSAGNTTASATLNVSAVDPVAAGGTGSGGGGPGGSGGVGGGSGGYTYFTTVTVETLETQPGEEALQPRGTEKEPPGPTTDGVWGGGRPGDAAGPASSSTTAPAPRSSRPTEKAFTVPITDVTENALKDLDDVMKTTK
B3: LRRC4B (230-713): FLAG-tagged LRRC4B deletion construct, amino acids 230-713 of SEQ ID NO: 2 (SEQ ID NO: 54) (protein)
chain: RLEELELSGNRLDLIRPGSFQGLTSLRKLWLMHAQVATIERNAFDDLKSLEELNLSHNNLMSLPHDLFTPLHRLERVHLNHNPWHCNCDVLWLSWWLKETVPSNTTCCARCHAPAGLKGRYIGELDQSHFTCYAPVIVEPPTDLNVTEGMAAELKCRTGTSMTSVNWLTPNGTLMTHGSYRVRISVLHDGTLNFTNVTVQDTGQYTCMVTNSAGNTTASATLNVSAVDPVAAGGTGSGGGGPGGSGGVGGGSGGYTYFTTVTVETLETQPGEEALQPRGTEKEPPGPTTDGVWGGGRPGDAAGPASSSTTAPAPRSSRPTEKAFTVPITDVTENALKDLDDVMKTTKIIIGCFVAITFMAAVMLVAFYKLRKQHQLHKHHGPTRTVEIINVEDELPAASAVSVAAAAAVASGGGVGGDSHLALPALERDHLNHHHYVAAAFKAHYSSNPSGGGCGGKGPPGLNSIHEPLLFKSGSKENVQETQI
modifications: FLAG tag
B4: LRRC4B (364-713): FLAG-tagged LRRC4B deletion construct, amino acids 364-713 of SEQ ID NO: 2 (SEQ ID NO: 55) (protein)
chain: PVIVEPPTDLNVTEGMAAELKCRTGTSMTSVNWLTPNGTLMTHGSYRVRISVLHDGTLNFTNVTVQDTGQYTCMVTNSAGNTTASATLNVSAVDPVAAGGTGSGGGGPGGSGGVGGGSGGYTYFTTVTVETLETQPGEEALQPRGTEKEPPGPTTDGVWGGGRPGDAAGPASSSTTAPAPRSSRPTEKAFTVPITDVTENALKDLDDVMKTTKIIIGCFVAITFMAAVMLVAFYKLRKQHQLHKHHGPTRTVEIINVEDELPAASAVSVAAAAAVASGGGVGGDSHLALPALERDHLNHHHYVAAAFKAHYSSNPSGGGCGGKGPPGLNSIHEPLLFKSGSKENVQETQI
modifications: FLAG tag
B5: LRRC4B (157-713): FLAG-tagged LRRC4B deletion construct, amino acids 157-713 of SEQ ID NO: 2 (SEQ ID NO: 53) (protein)
chain: LSKLRELWLRNNPIESIPSYAFNRVPSLRRLDLGELKRLEYISEAAFEGLVNLRYLNLGMCNLKDIPNLTALVRLEELELSGNRLDLIRPGSFQGLTSLRKLWLMHAQVATIERNAFDDLKSLEELNLSHNNLMSLPHDLFTPLHRLERVHLNHNPWHCNCDVLWLSWWLKETVPSNTTCCARCHAPAGLKGRYIGELDQSHFTCYAPVIVEPPTDLNVTEGMAAELKCRTGTSMTSVNWLTPNGTLMTHGSYRVRISVLHDGTLNFTNVTVQDTGQYTCMVTNSAGNTTASATLNVSAVDPVAAGGTGSGGGGPGGSGGVGGGSGGYTYFTTVTVETLETQPGEEALQPRGTEKEPPGPTTDGVWGGGRPGDAAGPASSSTTAPAPRSSRPTEKAFTVPITDVTENALKDLDDVMKTTKIIIGCFVAITFMAAVMLVAFYKLRKQHQLHKHHGPTRTVEIINVEDELPAASAVSVAAAAAVASGGGVGGDSHLALPALERDHLNHHHYVAAAFKAHYSSNPSGGGCGGKGPPGLNSIHEPLLFKSGSKENVQETQI
modifications: FLAG tag
B6: LRRC4B (453-713): FLAG-tagged LRRC4B deletion construct, amino acids 453-713 of SEQ ID NO: 2 (SEQ ID NO: 56) (protein)
chain: VSAVDPVAAGGTGSGGGGPGGSGGVGGGSGGYTYFTTVTVETLETQPGEEALQPRGTEKEPPGPTTDGVWGGGRPGDAAGPASSSTTAPAPRSSRPTEKAFTVPITDVTENALKDLDDVMKTTKIIIGCFVAITFMAAVMLVAFYKLRKQHQLHKHHGPTRTVEIINVEDELPAASAVSVAAAAAVASGGGVGGDSHLALPALERDHLNHHHYVAAAFKAHYSSNPSGGGCGGKGPPGLNSIHEPLLFKSGSKENVQETQI
modifications: FLAG tag
B7: LRRC4B (36-713): FLAG-tagged LRRC4B deletion construct, amino acids 36-713 of SEQ ID NO: 2 (SEQ ID NO: 52) (protein)
chain: AGGGGVAVTSAAGGGSPPATSCPVACSCSNQASRVICTRRDLAEVPASIPVNTRYLNLQENGIQVIRTDTFKHLRHLEILQLSKNLVRKIEVGAFNGLPSLNTLELFDNRLTTVPTQAFEYLSKLRELWLRNNPIESIPSYAFNRVPSLRRLDLGELKRLEYISEAAFEGLVNLRYLNLGMCNLKDIPNLTALVRLEELELSGNRLDLIRPGSFQGLTSLRKLWLMHAQVATIERNAFDDLKSLEELNLSHNNLMSLPHDLFTPLHRLERVHLNHNPWHCNCDVLWLSWWLKETVPSNTTCCARCHAPAGLKGRYIGELDQSHFTCYAPVIVEPPTDLNVTEGMAAELKCRTGTSMTSVNWLTPNGTLMTHGSYRVRISVLHDGTLNFTNVTVQDTGQYTCMVTNSAGNTTASATLNVSAVDPVAAGGTGSGGGGPGGSGGVGGGSGGYTYFTTVTVETLETQPGEEALQPRGTEKEPPGPTTDGVWGGGRPGDAAGPASSSTTAPAPRSSRPTEKAFTVPITDVTENALKDLDDVMKTTKIIIGCFVAITFMAAVMLVAFYKLRKQHQLHKHHGPTRTVEIINVEDELPAASAVSVAAAAAVASGGGVGGDSHLALPALERDHLNHHHYVAAAFKAHYSSNPSGGGCGGKGPPGLNSIHEPLLFKSGSKENVQETQI
modifications: FLAG tag

These molecules were tested against FAM19A5 protein (Homo sapiens, UniProt Q7Z5A7) (assay: Co-immunoprecipitation of FLAG-tagged LRRC4 family constructs with recombinant FAM19A5 in HEK293 cells). Settings: HEK293 cells expressing FLAG-tagged construct, recombinant FAM19A5 protein (1 μM) 30 minutes; anti-FLAG immunoprecipitation.
Assay type: binding
Experimental: To better understand the interaction between FAM19A5 and members of the LRRC4 protein family, HEK293 cells were modified to express a FLAG-tagged member of the LRRC4 protein family, i.e., LRRC4C protein, LRRC4 protein, or LRRC4B protein. Then, the HEK293 cells or primary cortical neurons were treated with recombinant FAM19A5 protein (1 μM) for 30 minutes, and the binding between FAM19A5 protein and the different members of the LRRC4 protein family was assessed using both co-immunoprecipitation and immunofluorescence assays.
For the co-immunoprecipitation assay, cell lysates from the different FAM19A5-treated HEK293 cells were collected and immunoprecipitated with an anti-FLAG antibody, anti-FAM19A5 (1-65) antibody, or a human IgG antibody (control). Immunoprecipitated proteins were immunoblotted with anti-FLAG and anti-FAM19A5 (3-2) antibodies. For the immunofluorescence assay, the HEK293 cells treated with the recombinant FAM19A5 protein were immunostained with anti-FAM19A5 (3-2) (to detect FAM19A5 protein expression) and anti-FLAG antibodies (to detect member of the LRRC4 protein family). The primary cortical neurons treated with the recombinant FAM19A5 protein were immunostained with anti-FAM19A5 (3-2) and anti-LRRC4B antibodies. The nuclei were stained with Hoechst33342 (blue).
To determine the specific motif or domain of the LRRC4B protein that is responsible for the binding to a FAM19A5 protein, various FLAG-tagged LRRC4B deletion constructs were generated (see Table 6 below). HEK293 cells were transfected with the different deletion constructs and then treated with recombinant FAM19A5 protein as described in Example 1. Then, the cell lysates from the different HEK293 cells were immunoprecipitated with the anti-FLAG antibody. The immunoprecipitated proteins were immunoblotted with anti-FLAG and anti-FAM19A5 (3-2) antibodies.
As described in Example 2, all members of the LRRC4 protein family were capable of binding to FAM19A5 protein to varying degrees. Therefore, to compare the bindings domains, the amino acid sequences of the LRRC4B, LRRC4, and LRRC4C proteins were aligned. […] Therefore, to assess whether the corresponding positions of LRRC4 and LRRC4C were important in the binding of these proteins to FAM19A5 protein, cDNAs encoding either (i) LRRC4C protein fragment (amino acids 354-527 of SEQ ID NO: 3; SEQ ID NO: 66) or (ii) LRRC4 protein fragment (amino acids 353-527 of SEQ ID NO: 1; SEQ ID NO: 67) were constructed (see Table 7). HEK293 cells were transfected to express either of the protein fragments and then treated with recombinant FAM19A5 protein as described in Example 1. Then, the cell lysates from the different HEK293 cells were immunoprecipitated with the anti-FLAG antibody. The immunoprecipitated proteins were immunoblotted with anti-FLAG and anti-FAM19A5 (3-2) antibodies.

Sequence of FAM19A5 protein (Q7Z5A7 44-132): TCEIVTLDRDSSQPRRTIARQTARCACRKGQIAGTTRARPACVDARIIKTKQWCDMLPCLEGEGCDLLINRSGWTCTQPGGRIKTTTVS

binding to FAM19A5 protein (co-immunoprecipitation) | Molecule
able to bind to the FAM19A5 protein | B1
able to bind to the FAM19A5 protein | B2
able to bind to the FAM19A5 protein | B3
able to bind to the FAM19A5 protein | B4
able to bind to the FAM19A5 protein | B5
able to bind to the FAM19A5 protein | B6
able to bind to the FAM19A5 protein | B7
